Results on one molecule are retold here after patent publication US20090028881A1 (ROCHE PALO ALTO, published 2009).

The assay concerns the target T1, human CCR5 (wild-type) (human, UniProt P51681 1-352).
T1 construct: also called wild-type CCR5
Briefly: alanine scanning epitope mapping. An excerpt: Epitope binding is investigated by using alanine scanning according to the method described by W. C. Olson et al. (J. Virol. (1999) 73:4145-55) for epitope mapping. […] 100% epitope binding is defined for wild-type CCR5. A further preferred anti-CCR5 antibody binds to the same epitope as antibody C binds.

T1 sequence (P51681 whole entry): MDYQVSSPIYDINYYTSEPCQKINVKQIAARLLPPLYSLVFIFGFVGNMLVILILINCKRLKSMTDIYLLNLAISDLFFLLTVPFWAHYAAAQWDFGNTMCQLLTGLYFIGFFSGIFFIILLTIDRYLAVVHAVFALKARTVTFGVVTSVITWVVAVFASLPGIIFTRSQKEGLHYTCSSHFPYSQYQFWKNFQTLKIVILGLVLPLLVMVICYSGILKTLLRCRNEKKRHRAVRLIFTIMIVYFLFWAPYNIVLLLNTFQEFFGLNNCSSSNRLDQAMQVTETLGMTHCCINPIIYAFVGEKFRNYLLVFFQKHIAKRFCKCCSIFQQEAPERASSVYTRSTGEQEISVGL

B1: <CCR5>Pz03.1C5 (antibody, V domains shown)
VH: QVQLKQSGPGLVRPSQSLSITCTVSGFPLGIFGVHWVRQSPGKGLEWLGVIWKGGNTDYNAAFMSRLRITKDNSKSQVFFRMNSLQTDDTAIYYCAKVNLADAMDYWGQGTSVIVSS
VL: DIQMTQSPASLSASVGETVTITCRASGNIHGYLAWFQQKQGKSPQLLVYNTKTLAEGVPSRFSGSGSGTQFSLKINSLQPEDFGNYYCQHHYDLPRTFGGGTKLEIKR
notes: also called Antibody C; m<CCR5>Pz03.1C5
For the molecule B1, the binding result is listed as “binds”.
